Data taken from patent US20110045008A1.

Biological target: platelet GPIIIa (integrin beta3) on platelets (human) (UniProt P05106)
Experiment: cell-based or functional assay

Chain of platelet GPIIIa (integrin beta3) on platelets (human) (P05106 27-788): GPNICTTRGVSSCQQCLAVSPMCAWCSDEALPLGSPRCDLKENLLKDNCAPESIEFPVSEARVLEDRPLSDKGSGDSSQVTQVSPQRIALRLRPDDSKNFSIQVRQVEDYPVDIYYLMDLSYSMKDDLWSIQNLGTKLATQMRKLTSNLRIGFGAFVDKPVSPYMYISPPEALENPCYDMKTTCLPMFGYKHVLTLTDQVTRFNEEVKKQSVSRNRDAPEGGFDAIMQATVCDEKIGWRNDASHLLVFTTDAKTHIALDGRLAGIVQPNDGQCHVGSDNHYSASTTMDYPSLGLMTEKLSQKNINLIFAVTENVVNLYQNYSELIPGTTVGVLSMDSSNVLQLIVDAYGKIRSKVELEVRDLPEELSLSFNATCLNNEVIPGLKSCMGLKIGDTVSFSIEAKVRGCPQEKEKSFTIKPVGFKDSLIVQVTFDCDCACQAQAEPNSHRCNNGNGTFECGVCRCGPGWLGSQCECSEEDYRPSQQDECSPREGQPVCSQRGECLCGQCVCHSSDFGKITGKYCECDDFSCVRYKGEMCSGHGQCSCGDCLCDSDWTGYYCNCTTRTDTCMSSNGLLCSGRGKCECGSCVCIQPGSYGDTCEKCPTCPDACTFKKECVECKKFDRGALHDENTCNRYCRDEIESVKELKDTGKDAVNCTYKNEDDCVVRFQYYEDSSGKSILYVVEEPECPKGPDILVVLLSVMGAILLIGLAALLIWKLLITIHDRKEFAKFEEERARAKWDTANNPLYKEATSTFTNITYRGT

platelet fragmentation: 85 µM
Substance: ADAMTS-18 66 amino acid fragment (1156-1221) (from UniProt Q8TE60 1156-1221) (ligand)
